Source: the NTF2 design screens of Basanta et al. (2020)

Assay: protease stability score; higher = more stable; yeast display proteolysis, trypsin and chymotrypsin;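 also: relative to predicted unfolded state with 0 unfolded-like and 1 meaning tenfold more protease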

| Sequence | protease stability score |
| --- | --- |
| HDKEHLSEYLLDLTEYLIRTGDFKLMLKMADPHVRNHIIIGEFELEYHGWHVYIHWLEKVLRRFGVDHVHVTHRNAQGDKVEMDTHLEVNGRRHDVDQHWVYINGRIEHVRFRIR | 0.794 |
| HDKEKEDKEWIKRLLDTIETGDPEQFSHLADPNVKAEFENHDSVGMEEVFKILEHLRIDHVRMKDMRIQGDWVHLITEMDGTINGKKIILKSRIIALKVNGRWVLTSTSLK | 1.42 |
| HDLEETVRDMIHLLMTFVETGDEDSVHRLIDPHVRVEVGDKLTHGRQWVHLLIKRADVLEIRIEDMRIVGDKALIVSKYHIRIDGVFIVYNIDIYAEKIDGRWVTTEIKVD | 1.71 |
| HDLEKFLDHFFEKLMKELETGDEQSWRRLADPRARLHINGKDFHGREFEHELRNKWGVSRVEEKLDSRDVIGNKLILDGSLSVNGKEIKAILFVQKVDGKWEFKEIEVH | 1.34 |
| HDLEKLVKFWYELWLRLLLTGDEEIFSHLADPNARLEVDGVEFVGREQVLKDLKRRMEEMRLTSMIITHVDWQGEKNRTEGITHGRINGVDITSETHLVLVIVNGRIRSIRIEIR | 1.54 |
| HDMEERSKHVHHIILRSLRTGDEDAYERLADPDTRLHVGDKNIHGRESIRNIWREILERIPNMRIELELEDSEIVGDYIYLKINLRMNFDGREVEHEIRIVSLKINGRWVEKSVHFR | 0.591 |
| HDQDESAKWVIEVLIRASYTGDFDMFIKYFDPNAKSLIDGKTFHGREDLKRHMDRFDHITHVRFHLRDRKMVGDKLIIHGQLEVHGYQGDWEIHMTRDVHIILRKVDGRWHIEELRLE | 2.18 |
| HDREKIAITFLKFLIHWHLTGNEDHLRENIDPHVRIRIHIDGKNNHLVGMEDWYKWVREELERADHLELRLDDVDVQGDKLHSDITNIIRIDGKTIVRKVHVHLDVVNGQVKSIEIEIR | 2.54 |
| HDREKLMEELVKNWIHLLKTGDEDQLHRLLDPHAKWDINGRELHGMEHINRRISEWRIEFNERHVEVIGEKIHIEGDLRVEIDGRRDEFHSEIELVIVNGRVKEIIVREG | 0.895 |
| HDRKREIDHVLKLWINHFKTGDEDFHERNMDPHVRLHQGNYETHGREEVKKFLKRLFDEFGADHIHIRDYRIDVQGDKITIVMEVEIRVGNYRIDIEFILYVAKVDGKWHVHHYEIRNH | 1.06 |
| HDRNEIIREALRILIHSILTGDEDHLREFADPHVKSDINGQEFHGREVFFMWLLHMRIQTVTIKHVDVQGEKARVYSSIHGDVDGQRTEYHTEIFSQKVNGRWIIRTIRVE | 1.16 |
| HEDDELLRQNVKVLLDMVETGDEHTLENMLDPHVRFEAENHHHHGRENLIRALKELLTRLGVKHWRSFEVERIDIQGDFIFLDTVFIMEVDGRKRKIKIHIVARKINGRWLIESIRLD | 1.48 |
| HEDDEMKKKWFEEWERRIHTGDEEEINKLADPHVRLEIGDKTRHGREEFTRYLWEFLYEFGANHVEIRYEEIRIINGVVHIRSRIHIHVDGRHIHLETHLIVFKFDGQWRLHTLHYK | 0.872 |
| HEDDHAVRKTIEDLLRSITTGDFELYSKLADPNTRFNIDGVNDVGMEIWVEKAIQHGWKVRHFHIRDVEVQGDKIDVDLKIDEDVNGRRIDIHVLLIIRKIDGRWILESVEHV | 1.64 |
| HEDDHQAERITHITMHAILTGDWRRMEELLDPHYRIEFENHENIGRERVNKVLIDLGIRNEIEIKRIRFQGDFVEIDGKLKIDVGDKHIEIKVRLFYVKINGRWFHHHVDLR | 0.835 |
| HEDDRIVQEHWKRLSEAWLTGDEERAKKNADPNTREVINGKELHGREEVTRLYREIRRSIEHVEIRDSRIQGDKLLIDVNMVISVIIGDKEFRIEVRVNVIMIKFDGVWHLETVHFH | 0.187 |
| HEDEDILREALKTLRHSIQTGDEDLLRELMDPNVRLETEHERLHGWEYVSKFMMDLYKRYDHMEYTVHDYKVYGDFLRVDVQLDVKQGEKDDVISTHMLALKFDGKWHIKKIIIE | 1.56 |
| HEDEDLLEELARKYKHHLETGDEHIIRRLVDPHVRIEQGEKKLIGREEFLRILTELLRSWGVTRFEFRIEDFRLQGDKAHMRGSVEVGDFHHDVEIVSRKIDGRWVITHYHEI | 0.118 |
| HEDEEEMKKFIHRWENDLRTGDEESHRRLADPNTLLVVNGRRVHGMEAVLHIVREMRLHEVYIDDIRIINGRAHTELTVKGEIDGVKHWSHTHIHVTKVNGQWHIDTIRIL | 0.663 |
| HEDEEEQRLANEIFHKMIWTGDEERLKDLMDPHVRIDVNGREVHGMEEWLEHFLQFKNMKFRVHFRENRIIDGVARSRTELRIIFDGREYRIDLIVIAQKINGRWILRSIEIR | 1.34 |
| HEDEEHALKLTMDFLRWIYTGDEDTLNKYADPNVRLDIGDKVFHGMEFINKHMKELRFHRIHVKRFEAHVVDGKLRSHMDVRIDGNVDGRRRETDVELIFFWEKIDGRWVNTSIIIHHH | 1.27 |
| HEDEEIIERILREFLHYQNTGDEDELRKLADPNVRVIQGDKHFVGREEFRRWVHEHLSQVDHVELEIEDMRIVGDFVEIRGKLHNKAEGRSIKEEVRLVLFKFDGRWTLHDVRVH | 2.09 |
| HEDEEISQNMMETMLRIIHTGDWHRFTELFDPHVRIEVNIGDKHLESVGREEARKWLERFKNRRTEIRDAKVRVQGDKVEIRIDGNVNVDGKEKHVEIILYIEKIDGRWLVHSVIIIIE | 2.13 |
| HEDEEIVKTFAKIRTELERTGDWETIMRLLDPHVRMDIDGVRVHGMEEVVRHIREFEEKFGVTNVQSRFRDVRIIGDKVDIHSQVHINGVEKNLHIHVEKFNGKWVITEIKIE | 1.28 |
| HEDEEKVKNMVRHEIQALQTGDWDHWLNLADPHVKLYIDGRINHGRHVIRFLVERFDHFRIDHYEVRSINHVDGRVRVNTQLHGQETINGVHEKHTVEVEMTIIKVNGRWYIEHLELE | 1.2 |

| Sequence | protease stability score |
| --- | --- |
| HEDEELMKELLKRWLNMLETGDWQNLAHYADPHVRLEFDGREIHGRTEVYRVLVEFHDKIKGMTYILKHSFYVGDKIHIKGSIRIGDKEYDTEIHIIIVDGRLKEVRVEHR | 1.98 |
| HEDEELSEKWLEDILRDHETGNEHRLRELFDPDARSHVGDKKIIGREDWSRALKEFIEKFPGVRIEIRHHENDIVGDKVRLDVTIILNFNGVEHEMKVTLILRKYNGRWRIREIRIR | 1.25 |
| HEDEELSEWMEREMIDIMRTGDEHRFLRMADPNTRFEFNGKDIHGRERVLDVLEFLGIDHMEFEDSKVRLYDGRVEVRLEGRINVGDKQSESRITIKAEKINGRWVLHEVSIEHH | 0.821 |
| HEDEELSRKAVELMLELIMTGDEDTIRSLADPDTRIEINGRHHHGRHLMVEFMREWFRRYPNVQLDVHSLDIDLFNGRVLIQINLEIRIGDKHHRVRINIHADKVDGRWRLKEVRIEIK | 1.5 |
| HEDEEMLHRLAELVEELFRTGDEEMHDHLMDPHARINIDGRDLHGRENMRILWQKLGIERVHVEFHDVKAIGDKASVHTFLEVNGVKVEILIRSEKINGRWVITQINIVFH | 0.386 |
| HEDEEMSQRMLDELMRFSRTGDWQRSAELADPHVRIIIGDKHLHGMEHWSELLKRIDHSHFHLRHVDIFENHIRLQGELRLHINGVEHRHEVIIKAHKVDGQWILESVEIR | 0.768 |
| HEDEESMEHSIRRLIQAIETGDFHELTELADPHVKLTIGDKEYIGREQWEKTLRDLGIDHFDVKRSKLIGDYARVDGKVNVNGQFRDTTVIMKKVDGKWLIRSWHVH | 1.91 |
| HEDEEWAEKMVREFLEATRTGDFESTLQLADPHVRFIINGKDIHGMEDWQEHLEHIRIQYHDIRIEHREVIGDKIYVKTRIDVTIHINGRKHRTVLDVEFIIHKVNGRWIIRELEIR | 1.61 |
| HEDEHELRHAVELFIWLIHTGDWHTELRLADPDVRHEVNGVENHGRELMLEDLQRIKNIRFHVRRVEIRVYGDKADLHIHGRKIVDGRHKELEIHVHIRKVNGKWLLHEVEVNIR | 1.59 |
| HEDEHKWERAFRIWIHALITGDEETTNELMDPNTRLNFNGVDFIGREDMIELIRHIRIHREHITHVEIRTFNGVLHVHMHVRRDGNINGQRRNTDVEIHIVIFKVNGRWVLHSTTIVVN | 2.23 |
| HEDEHLMKRVAELIFRLLVTGDEDRMRDLLDPTTRMDINGKEFHGRDQVIEVWRRLIDHIRIEEVHLEDHDIYGDKVRWHMRIRTRQGDKQLHLETRFTADKFNGRWELQTVIFK | 1.64 |
| HEDEHLSRRFAELVLTYLETGDEDSILEMADPHVRTELIIGDKTFRYIGRENLERWLHEVLRKFKNLRFVPKRLHIQGDKVIMRGYVIFDGRTHETEMIWIVINGRIHAVLHHEH | 1.81 |
| HEDEHQAEHLLEAVFHIFLTGDWRSLHELVDPNVRFDVNGRRTHGREDLIRFSRELRIHDVRFHRVKLDVYDGRVEMRIDGRIDGEINGRRTDVRSIIEIEFIKFNGQWRVESISLNFH | 1.44 |
| HEDEHYMQRIAEDILKSFLTGDFDHIYRMADPHVKLIVGDKESIGRDDMETMLRIWLEILGADHLEVKDLKTRLVGDKIEVNVDNRIQIGDKLINVKIEIIFEKVNGRWKVSRITLKLR | 1.5 |
| HEDEKEAEDAVREFLHNVSTGDEERMLELMDPNARLIYNGREYHGRELITHLIRELGVKVVRWRHLEVQGEKVHVDLRDTVGDKTIKTHLIFHKINGKWKVDEVKFD | 2.26 |
| HEDEKIARELTELLLHHFHTGNEESLSKLMDPNVRVIAENHELHGMEKKIEKNRKYLKDLGVDHFSFELRHLDLQGDKARVEGIEHWTINGQHHERHMVLHIVVVNGRLQESSIEIR | 0.929 |
| HEDEKVLKEMLRILAEVITTGNEEVMKRLADPHVRIDWNGRDIIGMEERYRKLREMGIEFEVRIHLRDTRSVGEKVEFITQLDVHIRVGDKTINFHQETRVDMEKVDGRWRVNEEKVV | 0.415 |
| HEDEKWMKHMLEMLIRSILTGDEETLHKLADPHVRLEINGQEYWGREQFTHAITQFIRHIRIDSIHVHDYHIQGEKVDFDMRSKFTINGQVDTSRLRVFILKVDGRWVVEEVIIR | 2.27 |
| HEDEQLAREFVEHLTENLRTGNEERIAELADPHVRVDIGDKHLHGWEWLRRRVRELRFHDLIIHHVEVIDGRIIFRGRMDGRVNGRHTQTEVRVELDKIDGRWTIRHIEIR | 2.01 |
| HEDERAFEHFIELLMHTLRTGDEELWKHLADPNYLLDVGDKHFIGRERVVEWIRHIRIKDVRVEHYKIQGDKAEIHTRVDGNIDGKELNLHSRFKMHKVDGRWLLEEVEFR | 2.22 |
| HEDERDAEEMLRLIEEAVYTGDEDLTKYLMDPNVRIHVGDKEFHGRDFLIMRLLEIRHHRFRLELHDIRIQGNKVILDVRWRLDGEINGQRFDDTWDVIIIAEKVNGQWRVQTLIIR | 2.59 |
| HEDERHLHEIIKRWFEALLTGDEHVLERLLDPNARIDIDGREFIGMEKFAHDISRIKNMQIKHHHIKHVRYVDGVMHWHGQRHGVVNGQEKNVEVIINLFVYDGRFKSMHIKDD | 1.06 |
| HEDERLMKEALEMIIESFRTGDEHTIEELADPHARVIVGDKHHHGWHELLKRVLELGVKHVNVRDMRVIGDKLEVKLELHVGDKTFDSRLHVLKVNGKWHIQFVEIH | 1.75 |
| HEDEVFFKLILHLLLEDYRTGDWESLEKFLDPSYKLVFDGKDIHGRERAVTIMRHEAHEMRIEDYHIRSLETQGDKLLLHGKFQGIVNGQRRESEIHLVILKVDGRWLWHSVQIN | 1.01 |
| HEDHERVRHIIERWWHILETGDEDEMEDMADPNVQIYIGDKRHHGREILAEHVRKFKGKKVNIKRLDIQGDKFRVDGDVHYDGRHHRVRIEIDVVDGRIKRLRIEIE | 1.38 |
